# B1: MDM2 25-109 (protein)
# chain: ETLVRPKPLLLKLLKSVGAQKDTYTMKEVLFYLGQYIMTKRLYDEKQQHIVYCSNDLLGDLFGVPSFSVKEHRKIYTMIYRNLVV
# B2: MDMX 24-108 (protein)
# chain: INQVRPKLPLLKILHAAGAQGEMFTVKEVMHYLGQYIMVKQLYDQQEQHMVYCGGDLLGELLGRQSFSVKDPSPLYDMLRKNLVT
# How the values were obtained:
# [1] = target: Stingin-2; assay: SPR
# [2] = target: Stingin-1; assay: SPR
# [3] = target: Stingin-4; assay: SPR competition
Binder,Kd [1],Kd [2],Kd [3]
B1,35.2 nM,25.1 nM,
B2,18 nM,11.4 nM,252 nM

# From publication PMC2845718 (2009)
